Measured values as given in patent US20130266566A1 (AbbVie / Abbott, published 2013).

T1: mouse PAI-1 (mouse, UniProt P22777 24-401)
T1 sequence: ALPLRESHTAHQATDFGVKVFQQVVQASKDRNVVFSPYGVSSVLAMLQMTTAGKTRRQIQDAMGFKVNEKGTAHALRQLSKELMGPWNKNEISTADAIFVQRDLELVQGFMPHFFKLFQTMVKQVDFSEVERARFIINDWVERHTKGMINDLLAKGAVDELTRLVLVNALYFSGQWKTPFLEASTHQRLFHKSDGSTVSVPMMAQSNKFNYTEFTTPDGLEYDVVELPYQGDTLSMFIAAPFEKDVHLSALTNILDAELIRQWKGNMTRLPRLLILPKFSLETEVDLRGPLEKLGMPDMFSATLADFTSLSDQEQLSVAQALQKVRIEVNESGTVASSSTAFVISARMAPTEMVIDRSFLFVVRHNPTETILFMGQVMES

T2: rat PAI-1 (rat, UniProt P20961 24-402)
T2 sequence: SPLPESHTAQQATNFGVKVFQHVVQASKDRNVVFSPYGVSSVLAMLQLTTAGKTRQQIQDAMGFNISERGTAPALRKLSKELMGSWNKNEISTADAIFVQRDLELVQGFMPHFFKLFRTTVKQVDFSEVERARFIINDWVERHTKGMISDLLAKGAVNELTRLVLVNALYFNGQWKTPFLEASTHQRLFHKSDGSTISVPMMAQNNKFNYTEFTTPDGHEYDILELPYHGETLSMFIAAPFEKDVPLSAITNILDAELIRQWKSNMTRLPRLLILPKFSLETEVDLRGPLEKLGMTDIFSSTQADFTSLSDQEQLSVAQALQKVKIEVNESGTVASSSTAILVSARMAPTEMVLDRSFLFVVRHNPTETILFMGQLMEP


Experiments:
Assay in all cases: cell-based or functional assay
[1] = target: T1, mouse PAI-1
[2] = target: cynomolgus PAI-1 (cynomolgus, UniProt P05121 24-402 (human entry), limits assumed)
[3] = target: T2, rat PAI-1
[4] = target: active human PAI-1, recombinant, wild-type, non-glycosylated (E. coli) (human, UniProt P05121 24-402)

Chromogenic (IC50 in nM) mouse [1] | Chromogenic IC50 ratio mouse/human [1] | Chromogenic (IC50 in nM) cyno [2] | Chromogenic IC50 ratio cyno/human [2] | Chromogenic (IC50 in nM) rat [3] | Chromogenic IC50 ratio rat/human [3] | Chromogenic (IC50 in nM) human [4] | Binder
33.6 nM | 0.3 fold | 43.8 nM | 0.4 fold | 59.5 nM | 0.6 fold | 102 nM | Antibody 11 scFv (scFv) QVQLQQSGAEVKKPGSSVKVSCKASGGTFSSYAISWMRQAPGQGLEWMGGIIPIFGTANYAQKFQGRVTITADESTSTAYMELSGLRSEDTAVYYCAREKRQWLEGHFDYWGRGTPVTVSSDIQMIQSPSFLSASTGDRVTITCQASEGIYHELAWYQQKPGKAPKLLIYRASSLASGAPSRFSGSGSGTDFTLTISSLQPDDFATYYCQQYSNYPLTFGGGTKLEIK
247 nM | 85.8 fold | 1.2 nM | 0.4 fold | 140 nM | 48.6 fold | 2.9 nM | Antibody 13 scFv (scFv) QVQLQQSGAEVKKPGSSVKVSCKASGGTFSSYAISWVRQAPGQGLEWMGGIIPTFGTANYAQKFQGRVTITADESTSTAYMELSDLRSEDTAVYYCAREKRQWLEGHFDYWGRGTPVTVSSDIQMTQSPSFLSASIGDRVTITCRASEGIYHSLAWYQQKPGKAPKLLIYRASSLASGAPSRFSGSGSGTDFTLTISSLQPDDFATYYCQQYSNYPLTFGGGTKLEIK
27.8 nM | 12.2 fold | 0.6 nM | 0.3 fold | 78.2 nM | 34.4 fold | 2.3 nM | Antibody 12 scFv (scFv) QVQLQQSGAEVKKPGSSVKVSCKASGGTFSSYAISWVRQAPGQGLEWMGGIIPTFPTANYAQKFQGRVTITADESTSTAYMELSGLRSEDTAVYYCAREKRQWLEGHFDYWGRGTPVTVSSDIQMTQSPSFLSASIGDRVTITCRASEGIYHNLAWYQQKPGKAPKLLIYRASSLASGAPSRFSGSGSGTDFTLTISSLQPDDFATYYCQQYSNYPLTFGGGTKLEIK
172 nM | 13.1 fold | 4.6 nM | 0.4 fold | 322 nM | 24.6 fold | 13.1 nM | Antibody 25 scFv (scFv) QVQLQQSGAEVKKPGSSVKVSCKASGGTFSSYAISWVRQAPGQGLEWMGGIIPTFGTANYAQKFQGRVTITADESTSTAYMELSGLRSEDTAVYYCARERRQWLEGHFDYWGQGTPVTVSSDIQMTQSPSFLSASIGDRVTITCRASESIYHELAWYQQKPGKAPKLLIYKASSLASGAPSRFSGSGSGTAFTLTISSLQPDDFATYYCQQYSNYPLTFGGGTKLEIK
413 nM | 82.6 fold | 1.5 nM | 0.3 fold | 406 nM | 81.2 fold | 5 nM | Antibody 22 scFv (scFv) QVQLQQSGAEVKKPGSSVKVSCKASGGTFSGYAISWVRQAPGQGLEWMGGIIPTFGTANYSQKFQGRVTITADESTSTAYMELSGLRSEDTAVYYCAREKRQWLEGHFDYWGRGTPVTVSSDIQMTQSLSFLSASIGDRVTITCRASEGIYHALAWYQQKPGKAPKLLIYRASSLASGAPSRFSGSGSGTDFTLTISSLQPDDFATYYCQQYSNYPLTFGGGTKLEIK
32.2 nM | 7.9 fold | 1.6 nM | 0.4 fold | 49.2 nM | 12 fold | 4.1 nM | Antibody 21 scFv (scFv) PVQLQQSGAEVKKPGSSVKVSCKASGGTFSSYAISWVRQAPGQGLEWMGGIIPTFGTANYAQKFQGRVTITADESTSTAYMELSGLRSEDTAVYYCAREKRQWLEGHFDYWGRGTPVTVSSDIQMAQSPSFLSASIGDRVTITCRASEGIYHNLAWYQQKPGKAPKLLIYRASSLASGAPSRFSGSGSGTDFTLTISSLQPDDFATYYCQQYSNYPLTFGGGTKLEIK
6.4 nM | 0.2 fold | 10.8 nM | 0.4 fold | 7.9 nM | 0.3 fold | 26 nM | Antibody 19 scFv (scFv) QVQLQQSGAEVKKPGSSVKVSCKASGGTFSSYAISWVRQAPGQGLEWMGGIIPIFDTANYAQKFQGRVTITADESTSTAYMELSGLRSEDTAVYYCARERRQWLEGHFDYWGRGTPVTVSSDIRMTQSPSFLSASIGDRVTITCRASEGIYHELAWYQQKPGKAPKLLIYRASSLASGAPSRFSGSGSGTEFTLTISSLQPDDFATYYCQQYSNYPLTFGGGTKLEIK
376 nM | 229 fold | 0.5 nM | 0.3 fold | 376 nM | 229 fold | 1.6 nM | Antibody 23 scFv (scFv) QVQLQQSGAEVKKPGSSVKVSCKASGGTFSSYAISWVRQAPGQGLEWMGGIIPTFGTANYAQKFQSRVTITADESTSTAYMELSGLRSEDTAVYYCAREKRQWLEGHFDYWGRGTPVTVSSDIQMTQSPSFLSASIGDRVTITCRASEGIYHSLAWYQQKPGKAPKLLIYRASSLASGAPSRFSGSGSGTDFTLTISSLQPDDFATYYCQQYSNYPLTFGGGTKLEIK
319 nM | 255 fold | 0.5 nM | 0.4 fold | – | – | – | Antibody 18 scFv (scFv) QVQLQQSGAEVKKPGSSVKVSCKASGGTFSSYAISWVRQAPGQGLEWMGGIIPTFGTANYAQKLQGRVTITADESTSTAYMELSGLRSEDTAVYYCAREKRQWLEGHFDYWGRGTPVTVSSDIQMTQSPSFLSASIGDRVTITCRASEGIYHALAWYQQKPGKAPKLLIYRASSLASGAPSRFSGSGSGTDFTLTISSLQPDDFATYYCQQYSNYPLTFGGGTKLEIK
26.2 nM | 0.4 fold | 41.5 nM | 0.6 fold | 24.9 nM | 0.3 fold | 71.5 nM | Antibody 17 scFv (scFv) QVQLQQSGAEVKKPGSSVKVSCKASGGTFSSYAISWVRQAPGQGLEWMGGIIPTFGTANYAQKFQGRVTITADESTSTAYMELSGLRSEDTAVYYCAREKRQWLEGHFDYWGRGTPVTVSSDIQMTQSPSFLSASIGDRVTITCRASEGIYHELAWYQQKPGKAPKLLIYRASSLASGAPSRFSGSGSGTDFTLTISSLQPDDFATYYCQQYSNYPLTFGGGTKLEIK
140 nM | 43.3 fold | 1.1 nM | 0.3 fold | 127 nM | 39.3 fold | 3.2 nM | Antibody 24 scFv (scFv) QVQLQQSGAEVKKPGSSVKVSCKASGGTFSSYAISWVRQAPGQGLEWMGGIIPTFVTANYAQKFQGRVSITADESTSTAYMELSGLRSEDTAVYYCAREKRQWLEGHFDYWGRGTPVTVSSDIQMTQSPSFLSASIGDRVTITCRASEGIYHALAWYQQKPGKAPKLLIYRASSLASGAPSRFSGSGSGTDFTLTISSLQPDDFATYYCQQYSNYPLTFGGGTKLEIK
– | 104 fold | – | – | – | 317 fold | – | Antibody 02 IgG1, not germlined (antibody, V domains shown) VH: QVQLVQSGAEVKKPGSSVKVSCKASGGTFSSYAISWVRQAPGQGLEWMGGIIPTFGTANYAQKFQGRVTITADESTSTAYMELSSLRSEDTAVYYCAREKRQWLEGHFDYWGRGTLVTVSS VL: DIQMTQSPSTLSASVGDRVTITCRASEGIYHSLAWYQQKPGKAPKLLIYKASSLASGVPSRFSGSGSGTEFTLTISSLQPDDFATYYCQQYSDYPLTFGGGTKVEIK
– | 20 fold | – | 0.4 fold | – | 66.2 fold | – | Antibody 01 IgG1, not germlined (antibody, V domains shown) VH: QVQLVQSGAEVKKPGSSVKVSCKASGGTFSSYAISWVRQAPGQGLEWMGGIIPIFGTANYAQKFQGRVTITADESTSTAYMELSSLRSEDTAVYYCAREKRQWLEGHFDYWGRGTLVTVSS VL: DIQMTQSPSTLSASVGDRVTITCRASEGIYRSLAWYQQKPGKAPKLLIYKASSLASGVPSRFSGSGSGTEFTLTISSLQPDDFATYYCQQYSNYPLTFGGGTKVEIK
